From patent US7148014 (University of Pennsylvania, dated 2006)

Target: T1, FcγRIIIA α + γ (WT) on transfected COS-1 cells (human; mouse, UniProt P08637 17-254; P20491 19-86)
T1 construct: whole, on cells; also called FcγRIIIA-γγ; FcγRIIIA α and wild type γ
Experiment: flow cytometry, COS-1 cells cotransfected with α and γ

T1 sequence (P08637 17-254, chain 1 of 2): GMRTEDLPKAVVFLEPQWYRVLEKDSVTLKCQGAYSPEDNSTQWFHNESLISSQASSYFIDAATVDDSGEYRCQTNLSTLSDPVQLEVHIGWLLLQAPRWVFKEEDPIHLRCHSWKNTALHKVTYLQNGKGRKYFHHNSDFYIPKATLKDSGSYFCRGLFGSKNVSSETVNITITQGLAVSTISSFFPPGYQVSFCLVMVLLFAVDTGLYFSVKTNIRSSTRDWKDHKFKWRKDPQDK
T1 sequence (P20491 19-86, chain 2 of 2): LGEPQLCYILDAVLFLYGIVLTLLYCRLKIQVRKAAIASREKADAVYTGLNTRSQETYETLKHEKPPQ

B1: anti-FcγRIII mAb, 3G8 (antibody)
chain 1: QVTLKESGPGILQPSQTLSLTCSFSGFSLRTSGMGVGWIRQPSGKGLEWLAHIWWDDDKRYNPALKSRLTISKDTSSNQVFLKIASVDTADTATYYCAQINPAWFAYWGQGTLVTVS
chain 2: DIVLTQSPASLAVSLGQRATISCKASQSVDFDGDSFMNWYQQKPGQPPKLLIYTTSNLESGIPARFSASGSGTDFTLNIHPVEEEDTATYYCQQSNEDPYTFGGGTKLELK
fold increase of mean fluorescence intensity over IgG isotype control or mock-transfected cells: 15 fold
